# Test system: MS2 coat protein
# Assay: apparent KD of MS2 coat protein; designed switch direction (-1 OFF switch, 1 ON switch): 1; higher = weaker reporter binding
# How it was run: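 The apparent KD reported per design is the median over clusters of curve fits to normalised cluster fluorescence. The RNA switches were transcribed on Illumina chips by stalled E. coli RNA polymerase. SNAP-549-labelled MS2 coat protein was titrated from 0.7 or 1.5 nM, doubling up to 3 µM, in Tris-HCl pH 7.5 buffer containing KCl, MgCl2, BSA, DTT, tRNA and Tween-20, with no input, 200 uM small-molecule ligand, or an oligonucleotide input.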
# [1] = Eterna round: R95, input ligand: FMN 200 uM
# [2] = Eterna round: R95, input ligand: microRNA oligo, concentration not stated
# [3] = Eterna round: R95, input ligand: none
# [4] = input ligand: microRNA oligo, concentration not stated
Sequence,apparent KD of MS2 coat protein [1],apparent KD of MS2 coat protein [2],apparent KD of MS2 coat protein [3],apparent KD of MS2 coat protein [4],apparent KD of MS2 coat protein (input ligand: FMN 200 uM),apparent KD of MS2 coat protein (input ligand: none)
GCUCUACAUGAGGAUCACCCAUGUCCGAACGCGCGAGGAUAUGCAUGGGCGAAAGCUGGUGCAGAAGGCGUGGGAC [2theCorner] (puzzle: Same State 1),315 nM,202 nM,358 nM,,,
"UGUUGUAUUACAGGAUAUCUAGUAUUAUUAUUUAGAGAAGGGUAUUCACAUGAGGAUCACCCAUGUAUAUACGAGGAAGUUGUG [JMF's solution 39] (Eterna round: R96, puzzle: Same State NG 1)",,,,28.2 nM,,
"GCUAGUAAAAUUGCUAACAUGAGGAUCACCCAUGUAUGUUGGCAGGAUAUCGUUUGCAAAGCAAACGAGAAGGGCUAAACUAGC [Mat - Same State NG 3 - JL Mod - D15] (Eterna round: R96, puzzle: Same State NG 3)",,,,47.5 nM,30.2 nM,86.8 nM
GGGCCAACGAGCGAGGAUAUGGCCUCGGACACAUGAGGAUCACCCAUGUCGAAAAGGUCAGGAGGCUAGAAGGCGUAAAAUGCCA [Tiqusoor] (puzzle: Same State 2),11.7 nM,10.8 nM,13.1 nM,,,
"AGAGGAGGAGCAGGAUAUUCGAAGAAGAACGUGGAAGAAGGGUUCAUGCGAUGACAUGAGGAUCACCCAUGUACCGCGCGAGGA [AK SSNG1-V2-11] (Eterna round: R96, puzzle: Same State NG 1)",,,,42.9 nM,50 nM,67.6 nM
"AUUAUUAAUAUAGGAUAUGUAAAACAUGAGGAUCACCCAUGUGAUAUCGUGAGUAAGGAGAGAGAACAGAAGGAUAAUUUUUUU [JMF's solution 1] (Eterna round: R96, puzzle: Same State NG 2)",,,,30.9 nM,38.1 nM,41.3 nM
"GGAGCCGGCCUAGGAUAUUUCAUAAUUAAACAUGAGGAUCACCCAUGUAGGCCAGAAGGCCUUGGGAAGAAGGAGGUCGGCUCC [Loop Effect - U26,U27] (Eterna round: R96, puzzle: Same State NG 2)",,,,39 nM,12.5 nM,82.3 nM
"CGCCCGAAUGAAGGAUAUGGUACAACACGAUGAUCAGAAGGUUAUUAAAGUGGGUGAUGCCGACAUGAGGAUCACCCAUGUUGG [Eternabot solution 40] (Eterna round: R96, puzzle: Same State NG 1)",,,,60 nM,53.1 nM,66.9 nM
"GGUGCCAAUAAAGCCUACAUGAGGAUCACCCAUGUAUGUAGGCAGGAUAUCGUAUGCAAAGCAUACGAGAAGGGCCGAGGCACC [Mat - Same State NG 3 - JL Mod - D56] (Eterna round: R96, puzzle: Same State NG 3)",,,,29.1 nM,18.7 nM,37 nM
"GUUCGGAAUCGAGCUGACAUGAGGAUCACCCAUGUUAGUGGGAAGGAUAUGGUACAGAAACUGUACCAGAAGGUCCUGCUGUCU [MOD2 Omei's SS(NG) 3 AV9] (Eterna round: R96, puzzle: Same State NG 3)",,,,57.2 nM,38.2 nM,59.5 nM
"GUCCGUAUCACAGGAUAUCCUAGUCAUGAUCUAGGAGAAGGGUGGCCACAUGAGGAUCACCCAUGUGAAGUGCCAGAGGCACGA [MOD2 Xexeraed] (Eterna round: R96, puzzle: Same State NG 1)",,,,64.8 nM,687 nM,149 nM
"UUCCCAUCGGGAGGAUAUGGUUCCUUAUUGGUUCUAGAAGGUCCAACAUGAGGAUCACCCAUGUGGGAGUGGUCUAAUGACCUC [SS NG10LRO05] (Eterna round: R96, puzzle: Same State NG 1)",,,,256 nM,889 nM,702 nM
"GACCGCGAGGAAGGAUAUGGAGCCUUAUUGGCUCCAGAAGGUCCAUAAAGGACAUGAGGAUCACCCAUGUGGGUUGAAGCGGUC [Fiskers NG1ss - 38] (Eterna round: R96, puzzle: Same State NG 1)",,,,125 nM,24.6 nM,173 nM
"UGAAUAGUCACAGGAUAUCAUGCGAAAAUUGCGUGAGAAGGGUGGGUGUUGUGCUCAAAGUGCUACAUGAGGAUCACCCAUGUU [SameState NG1 #41] (Eterna round: R96, puzzle: Same State NG 1)",,,,638 nM,1540 nM,1210 nM
"CCGAAAUAUGGAGGAUAUGGAGCCUUAUUGGCUCCAGAAGGUCAAAACAUGAGGAUCACCCAUGUAUCGGCGGUCAAUAGACCG [Eli NG1ss - 73] (Eterna round: R96, puzzle: Same State NG 1)",,,,81.7 nM,123 nM,171 nM
GAUAGACAUGAGGAUCACCCAUGUGACAAAACCACAGGAUAUCAUGCAGGCGUACCUGCAUGAGAAGGGUGAGACU [Ceriinaqu] (puzzle: Same State 1),29.7 nM,35.3 nM,22 nM,,,

Sequence,apparent KD of MS2 coat protein [1],apparent KD of MS2 coat protein [2],apparent KD of MS2 coat protein [3],apparent KD of MS2 coat protein [4],apparent KD of MS2 coat protein (input ligand: FMN 200 uM),apparent KD of MS2 coat protein (input ligand: none)
"CCCUUCGGCACAUGAGGAUCACCCAUGUUUUAGUUGAAGAGGUAGGAUAUGGCUGGGAGCGGAAGCCAGAAGGACCAAGUGAGU [Lareonge] (Eterna round: R96, puzzle: Same State NG 3)",,,,8.41 nM,7.76 nM,12.6 nM
AACAAUCUAUCUUAGGAUAUCAUGAAAUAAACAUGAGGAUCACCCAUGUGCAGGAAAACUGCAUAUGAGAAGGCAGAUAGAUUGA [salish99_ss2_r3_026] (puzzle: Same State 2),593 nM,36.2 nM,42.2 nM,,,
"AGGCUCAGAGCAGGAUAUAUGUGGUCACAUGAGGAUCACCCAUGUCUCGAGCUUCGGCUCGAGGCAUAGAAGGGCUCUGAGCCA [SSNG2/5-B1] (Eterna round: R96, puzzle: Same State NG 2)",,,,22.9 nM,963 nM,53.9 nM
"UGUUGUAUUACAGGAUAUCUAUUAGUUAUAUUUAGAGAAGGGUAUUCACAUGAGGAUCACCCAUGUAUAUACGAGGAAGUUGUG [JMF's solution 91] (Eterna round: R96, puzzle: Same State NG 1)",,,,42.3 nM,,
"GCGGAACCUGACAUGAGGAUCACCCAUGUUCCGGAAACGGCACAGGAUAUCUGUCCGAAAAGGUCAGAGAAGGGUGUAAACCGC [Fiskers NG3ss - 97] (Eterna round: R96, puzzle: Same State NG 3)",,,,325 nM,29 nM,210 nM
GGUCCAGCCUGAGCUGGACAAAAGCAUGUACAUGAGGAUCACCCAUGUCAUGUACAAGCUUUUUGCUCGUCUUAAUU [Mat - hsa-mir-208a - 87] (puzzle: Sensor for hsa-mir-208a),514 nM,15.1 nM,762 nM,,,
UUAAAACAUGAGGAUCACCCAUGUCAACAAAGUCGAGGAUAUGGGCAAAUAAAAUAAGAACCAGAAGGCGAAUAAC [salish99_SS1_r3_007] (puzzle: Same State 1),43.9 nM,422 nM,390 nM,,,
"UGCUUCGUGUAAGGAUAUGCUGCCGUUUCGGCUGCAGAAGGUACUAUAAUACAUGAGGAUCACCCAUGUCUCUCGCUUUGCGGG [salish99_SSng1_r04_305] (Eterna round: R96, puzzle: Same State NG 1)",,,,42.1 nM,,
"UUAAUAAUGUUAGGAUAUACAUGAGGAAUCCUCGUAGAAGGAACAUGACAUGAGGAUCACCCAUGUAGCGCUCCGUAGAGCGCA [Mat - Same State NG 1 - JL mod - D45] (Eterna round: R96, puzzle: Same State NG 1)",,,,53.2 nM,1600 nM,164 nM
"GUAGCAUACCGAGGAUAUUCAUAUAAUAUACAUGAGGAUCACCCAUGUUAUAGGCGAAAGCCUUGGGAGAAGGCGGAAUGCUAC [Xeonanis - 20 Mod62] (Eterna round: R96, puzzle: Same State NG 2)",,,,15.3 nM,8.73 nM,14.9 nM
"UGAAUAUUUACAGGAUAUGAGUUGUAUAGUGGAUCAGAAGGGUGGGUGUUUUGCACGGUGUGUUACAUGAGGAUCACCCAUGUU [SameState NG1 #26] (Eterna round: R96, puzzle: Same State NG 1)",,,,206 nM,412 nM,196 nM
UGUGUCAUAGGUUUUUUAGCUCGUCUGAUACAUGAGGAUCACCCAUGUUAUAGCCCUGUGCUUGCGCAGGGCUGAGG [JL shm-2.xx] (puzzle: Sensor for hsa-mir-208a),50.2 nM,36.6 nM,56.7 nM,,,
GAGAAGAGGGACAAGGAUAUGUCAGGAGAGACAUGAGGAUCACCCAUGUAGAGGUUGGAGGAGAGACAGAAGGUGUCGGGAGCGA [JR_SS2_Sub013] (puzzle: Same State 2),86.8 nM,73.7 nM,109 nM,,,
"GUUACAUGAGGAUCACCCAUGUAUGUGUGGGAGUAAGUGUCUUAGGAUAUCUGUUAUUUAGUUUAAGAGAAGGAAGAUUGUUGU [JMF's solution 41] (Eterna round: R96, puzzle: Same State NG 3)",,,,80.9 nM,124 nM,97.4 nM
UUAAAACAUGAGGAUCACCCAUGUAAUAUAAUGGGAGGAUAUCUGAUUUAAUUAAAUUUAAGAGAAGGCCUAAAUU [Mat - Same State 1 - Mod of Eli - D55] (puzzle: Same State 1),28.9 nM,128 nM,169 nM,,,
